Experimental data reported in patent US20200254071A1, “COMPOSITIONS AND METHODS FOR THROMBOEMBOLISM DISSOLUTION” (priority 2016, published 2020).

Tests used:
[1] = tested on: thrombus or embolus in cats with ATE; details: cited from earlier work
[2] = tested on: thrombus or embolus in cats; details: cited from earlier work
blood clots = assay: thrombolytic activity of the single agents, inventor's private research study; type: in vivo; details: single agent
Excerpt: However, both agents can be dissolved in stomach acids, rendering certain dosage forms nearly useless as thrombolytic agents. This may explain why the potency of previous oral thrombolytics is decreased in comparison to injected thrombolytic agents. Enteric coatings reduce the active ingredients' rate of digestion in stomach acids, leading to enhanced efficacy of the active ingredient(s).

[3] = tested on: fibrinolytic activity in the plasma; assay: oral administration of nattokinase: fibrinolytic activity in the plasma; type: in vivo
Excerpt: There are no known studies that examine the efficacy of nattokinase as a thrombolytic agent in cats.

[4] = in vivo
Protocol: To ensure the efficacy of these two thrombolytic agents, an enteric coating is appropriate for some orally administered embodiments. The enteric coating allows the nattokinase and rutin bioflavonoid to travel through the acidic environment of the stomach without being dissolved. Nattokinase and rutin can then be absorbed into the bloodstream or circulation via the small intestine. Once absorbed, nattokinase remains active in the bloodstream for approximately 12 hours. In one embodiment, the enteric coating is composed of methacrylic acid copolymer and triethyl citrate. Additional ingredients may include, for example, arabinoglactan, microcrystalline cellulose, maltodextrin, stearic acid, croscarmellose sodium, silicon dioxide. During this clinical trial, participants were not on any other thrombolytic or fibrinolytic (blood thinning) agents.

[5] = tested on: artificially induced thrombosis; details: dogs, capsules orally; cited from earlier work
[6] = purified form; cited from earlier work

streptokinase: veterinary drug with the potential to dissolve a thrombus or embolus
cats with pulses restored ([1]; fraction of 46 cats): about half
cats with motor function returned to their limbs ([1]; within 24 hours): 30%

tPA: tissue-plasminogen activator, veterinary drug with the potential to dissolve a thrombus or embolus
fatal complications due to metabolic acidosis and hyperkalemia ([2]; cats with ATE): 70%
cats with perfusion restored to their limbs ([2]; fraction of cats given the drug): about two-thirds

B1: nattokinase: naturally occurring proteolytic enzyme derived from natto, soybeans fermented with Bacillus subtilis natto (protein, UniProt P35835 107-381, looked up)
Subtilisin NAT: AQSVPYGISQIKAPALHSQGYTGSNVKVAVIDSGIDSSHPDLNVRGGASFVPSETNPYQDGSSHGTHVAGTIAALNNSIGVLGVAPSASLYAVKVLDSTGSGQYSWIINGIEWAISNNMDVINMSLGGPTGSTALKTVVDKAVSSGIVVAAAAGNEGSSGSTSTVGYPAKYPSTIAVGAVNSSNQRASFSSVGSELDVMAPGVSIQSTLPGGTYGAYNGTSMATPHVAGAAALILSKHPTWTNAQVRDRLESTATYLGNSFYYGKGLINVQAAAQ
thrombolytic activity (blood clots): demonstrated thrombolytic activity
fibrinolytic activity in the plasma and production of tissue plasminogen activator [3]: mild and frequent enhancement
time active in the bloodstream [4]: approximately 12 hours
lysis of the thrombi by angiography [5]: lysis of the thrombi was observed
optimum pH of enzyme [6]: 7
optimum temperature of enzyme [6]: 37 °C
